In patent US20240010712A1 (published 2024):

Experiments:
[1] = biological target: SF370 bacterial surface (Streptococcus pyogenes strain SF370 (emm1 serotype)); assay: binding to SF370 bacteria, fitted binding curve; unit printed nM-1; ±261; non-specific control IgG (Fc binding)
[2] = biological target: T1, M1 protein on the surface of Streptococcus pyogenes strain SF370 (Streptococcus pyogenes strain SF370 …); assay: binding to SF370 bacteria, fitted binding curve; unit printed nM-1; ±30.3; Fab
T1 chain: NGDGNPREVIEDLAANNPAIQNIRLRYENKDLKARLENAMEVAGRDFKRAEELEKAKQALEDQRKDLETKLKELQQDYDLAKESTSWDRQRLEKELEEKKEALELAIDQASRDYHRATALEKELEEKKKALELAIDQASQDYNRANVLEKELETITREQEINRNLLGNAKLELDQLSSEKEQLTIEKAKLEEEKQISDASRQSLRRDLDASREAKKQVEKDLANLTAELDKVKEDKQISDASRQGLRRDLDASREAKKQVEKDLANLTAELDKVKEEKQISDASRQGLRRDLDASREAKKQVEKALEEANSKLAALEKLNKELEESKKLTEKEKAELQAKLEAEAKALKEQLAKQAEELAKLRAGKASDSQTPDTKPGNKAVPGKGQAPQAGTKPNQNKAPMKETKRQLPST

[3] = biological target: T1, M1 protein on the surface of …; assay: binding to SF370 bacteria, fitted binding curve; unit printed nM-1; ±1.2; F(ab')2
[4] = biological target: T1, M1 protein on the surface of …; assay: as above
[5] = biological target: T1, M1 protein on the surface of …; assay: binding to SF370 bacteria, fitted binding curve; unit printed nM-1; ±2.9; F(ab')2

## Xolair IgG
[1]
  Kd: 3170 nM

B1: Ab49 single Fabs (IgdE-cleaved Ab49) (Fab, V domains shown)
VH: EVQLVESGGGLVQPGGSLRLSCAASGFTVSINYMSWVRQAPGKGLQWVSVIYSGGSTYYADSVKGRFTISRDNSKNTLYLQMNSLRAEDTAMYYCVRDSRFWGIFDYWGQGTLVTVSS
VL: EIVLTQSPATLSLSPGERATLSCRASQSVSSYLAWYQRKPGQAPRLLIYDASNRATGIPARFSGSGSGTDFTLTISSLEPEDFAVYYCQQRSNWPPTFGQGTKVEIKR
[2]
  Kd: 208 nM

B2: Ab49 F(ab')2 fragments (IdeS-cleaved Ab49) (antibody, V domains shown)
VH: EVQLVESGGGLVQPGGSLRLSCAASGFTVSINYMSWVRQAPGKGLQWVSVIYSGGSTYYADSVKGRFTISRDNSKNTLYLQMNSLRAEDTAMYYCVRDSRFWGIFDYWGQGTLVTVSS
VL: EIVLTQSPATLSLSPGERATLSCRASQSVSSYLAWYQRKPGQAPRLLIYDASNRATGIPARFSGSGSGTDFTLTISSLEPEDFAVYYCQQRSNWPPTFGQGTKVEIKR
[3]
  Kd: 12.3 nM
[4]
  Kd: 12.3 nM

B3: Ab32 F(ab')2 fragments (IdeS-cleaved Ab32) (antibody, V domains shown)
VH: EVQLVESGGGLVRPGGSLRLSCVASGFMFNEYYMSWIRQAPGKGLEWISFISNAGTYTNYAESVKGRFTISRDNAKDSLYLEMNSLRGEDTAVYYCARQGFDTRGEDAFEIWGQGTMVTVSS
VL: EIVLTQSPATLSLSPGERATLSCRASQPLSGYLAWYQQKPGQAPRLLIYNASKRATGIPARFTGSGSGTDFTLTISSLESEDFAVYYCQQRSGWPSIFTFGPGTKVDIKR
[5]
  Kd: 9.1 nM
